Holding throughout (test): Octet BLI; Fab 200 nM
For orientation: BLI is a label-free optical method that tracks binding on a fibre tip over time.

Test [1] concerns the target T1, extracellular domain of rhesus monkey BCMA (rhesus monkey, UniProt F7FFA0 1-53).
T1 construct: extracellular domain; also called RhBCMA

The target in test [2] is T2, extracellular domain of human BCMA (human, UniProt Q02223 1-54).
T2 construct: amine-linked to Octet AR2G tips; also called hsBCMA; BCMA (human)
T2 sequence: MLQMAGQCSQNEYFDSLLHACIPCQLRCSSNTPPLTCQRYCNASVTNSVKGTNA

For test [3], the target named is T1, extracellular domain of rhesus monkey …. This is another data set of the same source.
Test [4] concerns the target T2, extracellular domain of human BCMA. The source holds these as a separate data set.

The results in this text go back to US20240327535A1 (EISAI R AND D MANAGEMENT, published 2024).

Changes are numbered by the printed parent chain. Read-outs that look alike come from different tables or passages of the source.

T1 sequence (F7FFA0 entry or part of it): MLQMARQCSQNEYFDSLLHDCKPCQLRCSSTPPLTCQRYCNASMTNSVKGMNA

B1: AB200-R1a-Fab_VH1 (Fab, V domains shown)
VH: QVQLVQSGAEVKKPGSSVKVSCKASGGTFSNYWMHWVRQAPGQGLEWMGATYRGHSETYYNEKFKGRVTITADKSTSTAYMELSSLRSEDTAVYYCARGAIYHGYDVLDDWGQGTLVTVSS
VL: DIQMTQSPSSLSASVGDRVTITCSATQDISNYLNWYQQKPGKAPKLLIYFTSNLQSGVPSRFSGSGSGTDFTLTISSLQPEDFATYYCQQYRKLPWTFGQGTKLEIKR
Turning to B1, the Kd in test [1] came to 32.2 nM; in test [2], 21 nM.

B2: AB200-R1a-Fab_VH4 (Fab, V domains shown)
VH: B1 VH with S25T, E57N, N61D, E62Q, D110N
VL: B1 VL
Consider B2, for which the Kd stood at 13.7 nM in test [1] and 5.45 nM in test [2].

B3: AB200-R1a-Fab_VH37 (Fab, V domains shown)
VH: B1 VH with S30T, R53K, E57D, E62Q, K65R, D110N
VL: B1 VL
Turning to B3, the Kd in test [1] was 10.4 nM; in test [2], 5.28 nM.

B4: AB200-R1a-Fab_VH21 (Fab, V domains shown)
VH: B1 VH with W33A, H55Q, E57D, E62Q, F64Y, D110N
VL: B1 VL
In the case of B4, the Kd stood at 11.1 nM in test [1] and 5.23 nM in test [2].

B5: AB200-R1a-Fab_VH36 (Fab, V domains shown)
VH: B1 VH with Y52F, E57D, E62H, Y105F, D110N
VL: B1 VL
Take B5: the Kd in test [1] came out at 45.4 nM; in test [2] it was 28.1 nM.

B6: AB200-R1a-Fab_VH42 (Fab, V domains shown)
VH: B1 VH with E57T, E62Q, A100S, L108M, D110N
VL: B1 VL
As to B6, the Kd in test [1] worked out at 15.5 nM; in test [2] it was 28.4 nM.

B7: AB200-R1a-Fab_VH31 (Fab, V domains shown)
VH: B1 VH with A50G, E57D, Y60F, E62Q, Y105F, D110N
VL: B1 VL
Consider B7, for which the Kd came out at 19.2 nM in test [1] and 9.06 nM in test [2].

B8: AB200-R1H32-R2Vk34 (Fab, V domains shown)
VH: B1 VH with G54S, E57D, E62Q, G66S, L108I, D110N
VL: B1 VL with S24R, T26S, D28S, N31S, L33I, F50A, K93R, T97S
In the case of B8, the Kd in test [3] amounted to 4.53 nM; in test [4], 1.12 nM.

B9: AB200-R1a-Fab_VH19 (Fab, V domains shown)
VH: B1 VH with T28S, H35Q, E57D, E62Q, A100S, D110N
VL: B1 VL
As to B9, the Kd in test [1] worked out at 35.6 nM; in test [2] it was 18.5 nM.

B10: AB200-R1a-Fab_VH27 (Fab, V domains shown)
VH: B1 VH with S25T, T51I, E57D, E62Q, K65R, D110N
VL: B1 VL
Consider B10, for which the figures for the Kd in test [1] and in test [2] were 7.84 nM and 3.8 nM, respectively.

B11: AB200-R1a-Fab_VH30 (Fab, V domains shown)
VH: B1 VH with F29Y, S56T, E57D, E62Q, L108M, D110N
VL: B1 VL
B11: the dissociation constant Kd in test [1] was 28.2 nM; in test [2], 22.3 nM.

B12: AB200-R1H32-R2Vk44 (Fab, V domains shown)
VH: B1 VH with G54S, E57D, E62Q, G66S, L108I, D110N
VL: B1 VL with S24R, T26S, D28S, N31S, L33I, F50A, S56I, K93R, T97S
With B12, the equilibrium dissociation constant (Kd) in test [3] came to 3.32 nM; in test [4], 0.71 nM.

B13: AB200-R1a-Fab_VH23 (Fab, V domains shown)
VH: B1 VH with W33Y, E57D, Y59F, N61A, E62Q, D110N
VL: B1 VL
With B13, the Kd in test [1] stood at 19.9 nM; in test [2] it was 20.4 nM.

B14: AB200-R1a-Fab_VH18 (Fab, V domains shown)
VH: B1 VH with R53K, E57D, E62Q, K74E, D106E, D110N
VL: B1 VL
With B14, the Kd in test [1] is 10.6 nM; in test [2], 7.73 nM.

B15: AB200-R1a-Fab_VH26 (Fab, V domains shown)
VH: B1 VH with T28S, G54I, E57D, Y59F, E62Q, D110N
VL: B1 VL
As for B15, the dissociation constant Kd amounted to 2.31 nM in test [1] and 0.926 nM in test [2].

B16: AB200-R1a-Fab_VH33 (Fab, V domains shown)
VH: B1 VH with S30T, Y32F, H55Q, E57D, E62Q, D110N
VL: B1 VL
Take B16: the dissociation constant (Kd) in test [1] was 5.12 nM; in test [2], 1.43 nM.

B17: AB200-R1H32-R2Vk38 (Fab, V domains shown)
VH: B1 VH with G54S, E57D, E62Q, G66S, L108I, D110N
VL: B1 VL with S24R, T26S, D28S, N31S, L33I, F50A, Y91F, L94I
For B17, the equilibrium dissociation constant (Kd) turned out to be 5.35 nM in test [3] and 1.15 nM in test [4].

B18: AB200-R1a-Fab_VH41 (Fab, V domains shown)
VH: B1 VH with E57D, V107I, D109N, D110N
VL: B1 VL
Consider B18, for which the Kd in test [2] worked out at 14.5 nM.

B19: AB200-R1a-Fab_VH20 (Fab, V domains shown)
VH: B1 VH with Y52I, E57Q, E62Q, K65Q, D110N
VL: B1 VL
With B19, the dissociation constant Kd was 15.1 nM in test [1] and 10.5 nM in test [2].

B20: AB200-R1H32-R2Vk43 (Fab, V domains shown)
VH: B1 VH with G54S, E57D, E62Q, G66S, L108I, D110N
VL: B1 VL with S24R, T26S, D28S, N31S, L33I, F50A, L54I, Y91F, L94I
For the molecule B20, the equilibrium dissociation constant (Kd) in test [3] was 9.2 nM; in test [4] it was 1.29 nM.

B21: AB200-R1a-Fab_VH24 (Fab, V domains shown)
VH: B1 VH with S30T, E57N, E62Q, L108I, D110N
VL: B1 VL
As to B21, the dissociation constant Kd in test [1] worked out at 24.5 nM; in test [2] it was 13.1 nM.

B22: AB200-R1a-Fab_VH3 (Fab, V domains shown)
VH: B1 VH with H35S, E57Q, E62Q, I101V, D110N
VL: B1 VL
In test [2], B22 came in with a Kd of 53.1 nM.

B23: AB200-R1a-Fab_VH35 (Fab, V domains shown)
VH: B1 VH with M34I, Y52F, R53K, E57D, E62Q, D110N
VL: B1 VL
B23: the figures for the Kd in test [1] and in test [2] were 9.49 nM and 8.5 nM, respectively.

B24: AB200-R1a-Fab_VH34 (Fab, V domains shown)
VH: B1 VH with W33Y, M34L, E57D, E62Q, H103N, D110N
VL: B1 VL
Regarding B24, the equilibrium dissociation constant (Kd) was determined as 13.2 nM in test [1] and 18.9 nM in test [2].

B25: AB200-R1a-Fab_VH40 (Fab, V domains shown)
VH: B1 VH with Y32F, E57D, E62H, D109E, D110N
VL: B1 VL
In the case of B25, the equilibrium dissociation constant (Kd) was found to be 45.3 nM in test [1] and 17.2 nM in test [2].

B26: AB200-R1a-Fab_VH38 (Fab, V domains shown)
VH: B1 VH with E57D, Y60F, E62Q, Y102F, H103N, D110N
VL: B1 VL
As for B26, the dissociation constant Kd in test [1] is 12.1 nM; in test [2] it was 4.12 nM.

B27: AB200-R1a-Fab_VH2 (Fab, V domains shown)
VH: B1 VH with E57D, E62Q, K65Q, I101V, Y102F, D110N
VL: B1 VL
Regarding B27, the dissociation constant (Kd) in test [1] came to 11.1 nM; in test [2] it was 2.85 nM.

B28: AB200-R1a-Fab_VH5 (Fab, V domains shown)
VH: B1 VH with E57D, T58S, Y59N, E62N, D110N
VL: B1 VL
As to B28, the figures for the Kd in test [1] and in test [2] were 23.4 nM and 21.1 nM, respectively.

B29: AB200-R1H32-R2Vk37 (Fab, V domains shown)
VH: B1 VH with G54S, E57D, E62Q, G66S, L108I, D110N
VL: B1 VL with S24R, T26S, D28S, N31S, L33I, F50A, L94I, T97S
For B29, the dissociation constant Kd in test [3] worked out at 4.41 nM; in test [4], 0.85 nM.

B30: AB200-R1a-Fab_VH51 (Fab, V domains shown)
VH: B1 VH with E57D, Y59N, E62Q, A100T, Y105F, D110N
VL: B1 VL
In test [2], B30 had a Kd of 18.9 nM.

B31: AB200-R1a-Fab_VH15 (Fab, V domains shown)
VH: B1 VH with F29Y, E57D, T58A, E62Q, K63R, D110N
VL: B1 VL
For B31, the dissociation constant Kd in test [1] was 17.1 nM; in test [2] it was 11.7 nM.

B32: AB200-R1a-Fab_VH13 (Fab, V domains shown)
VH: B1 VH with E57T, N61A, E62Q, F64Y, D110N
VL: B1 VL
Take B32: the results for the Kd in test [1] and in test [2] were 12.9 nM and 5.38 nM, respectively.

B33: AB200-R1H32-R2Vk33 (Fab, V domains shown)
VH: B1 VH with G54S, E57D, E62Q, G66S, L108I, D110N
VL: B1 VL with S24R, T26S, D28S, N31S, F50A, S56I, Y91F, L94I
With B33, the dissociation constant Kd in test [3] worked out at 4.29 nM; in test [4], 0.996 nM.

B34: AB200-R1H32-R2Vk32 (Fab, V domains shown)
VH: B1 VH with G54S, E57D, E62Q, G66S, L108I, D110N
VL: B1 VL with S24R, T26S, D28S, N31S, F50A, S56I, L94I, T97S
As to B34, the Kd in test [3] was found to be 4.83 nM; in test [4] it was 0.873 nM.

B35: AB200-R1a-Fab_VH17 (Fab, V domains shown)
VH: B1 VH with N31S, E57D, N61A, E62Q, D106E, D110N
VL: B1 VL
With B35, the Kd in test [1] amounted to 70.2 nM; in test [2], 82.7 nM.

B36: AB200-R1H32-R2Vk30 (Fab, V domains shown)
VH: B1 VH with G54S, E57D, E62Q, G66S, L108I, D110N
VL: B1 VL with S24R, T26S, D28S, N31S, F50A, S56I, K93R, L94I
Consider B36, for which the values for the Kd in test [3] and in test [4] were 3.92 nM and 0.816 nM, respectively.

B37: AB200-R1H32-R2Vk40 (Fab, V domains shown)
VH: B1 VH with G54S, E57D, E62Q, G66S, L108I, D110N
VL: B1 VL with S24R, T26S, D28S, N31S, L33I, F50A, L54I, K93R, L94I
Regarding B37, the results for the equilibrium dissociation constant (Kd) in test [3] and in test [4] were 5.08 nM and 1.03 nM, respectively.

Usually Kd stands for the free concentration of one partner at which half of the binding sites on the other are occupied at equilibrium, for simple one-to-one binding.
